US11512128B2, “VEGF/DLL4 binding agents and uses thereof” (MEREO BIOPHARMA 5, INC., priority 2011, dated 2022)
Where a chain is given by its changes, count along the chain named.

B1: 21M18: anti-DLL4 antibody, parental antibody (Hoey et al., 2009; U.S. Pat. No. 7,750,124) (antibody, V domains shown)
VH: QVQLVQSGAEVKKPGASVKISCKASGYSFTAYYIHWVKQAPGQGLEWIGYISSYNGATNYNQKFKGRVTFTTDTSTSTAYMELRSLRSDDTAVYYCARDYDYDVGMDYWGQGTLVTVSS
VL: DIVMTQSPDSLAVSLGERATISCRASESVDNYGISFMKWFQQKPGQPPKLLIYAASNQGSGVPDRFSGSGSGTDFTLTISSLQAEDVAVYYCQQSKEVPWTFGGGTKVEIK
B2: 219R45-MB-21R79: anti-VEGF/anti-DLL4 monovalent/bispecific antibody, heavy chains SEQ ID NO:7 and 6, light chains SEQ ID NO:8 (antibody)
heavy 1: QVQLVQSGAEVKKPGASVKVSCKASGYTFTNYWMHWVRQAPGQGLEWMGDINPSNGRTSYKEKFKRRVTLSVDKSSSTAYMELSSLRSEDTAVYFCTIHYDDKYYPLMDYWGQGTLVTVSSASTKGPSVFPLAPCSRSTSESTAALGCLVKDYFPEPVTVSWNSGALTSGVHTFPAVLQSSGLYSLSSVVTVPSSNFGTQTYTCNVDHKPSNTKVDKTVERKCCVECPPCPAPPVAGPSVFLFPPKPKDTLMISRTPEVTCVVVDVSHEDPEVQFNWYVDGVEVHNAKTKPREEQFNSTFRVVSVLTVVHQDWLNGKEYKCKVSNKGLPAPIEKTISKTKGQPREPQVYTLPPSREKMTKNQVSLTCLVKGFYPSDIAVEWESNGQPENNYKTTPPMLKSDGSFFLYSKLTVDKSRWQQGNVFSCSVMHEALHNHYTQKSLSLSPGK
heavy 2: QVQLVQSGAEVKKPGASVKISCKASGYSFTAYYIHWVKQAPGQGLEWIGYIANYNRATNYNQKFKGRVTFTTDTSTSTAYMELRSLRSDDTAVYYCARDYDYDVGMDYWGQGTLVTVSSASTKGPSVFPLAPCSRSTSESTAALGCLVKDYFPEPVTVSWNSGALTSGVHTFPAVLQSSGLYSLSSVVTVPSSNFGTQTYTCNVDHKPSNTKVDKTVERKCCVECPPCPAPPVAGPSVFLFPPKPKDTLMISRTPEVTCVVVDVSHEDPEVQFNWYVDGVEVHNAKTKPREEQFNSTFRVVSVLTVVHQDWLNGKEYKCKVSNKGLPAPIEKTISKTKGQPREPQVYTLPPSREEMTKNQVSLTCLVEGFYPSDIAVEWESNGQPENNYKTTPPMLDSDGSFFLYSELTVDKSRWQQGNVFSCSVMHEALHNHYTQKSLSLSPGK
light: DIVMTQSPDSLAVSLGERATISCRASESVDNYGISFMKWFQQKPGQPPKLLIYAASNQGSGVPDRFSGSGSGTDFTLTISSLQAEDVAVYYCQQSKEVPWTFGGGTKVEIKRTVAAPSVIFPPSDEQLKSGTASVVCLLNNFYPREAKVQWKVDNALQSGNSQESVTEQDSKDSTYSLSSTLTLSKADYEKHKVYACEVTHQGLSSPVTKSFNRGEC
modifications: 21R79 Heavy chain without predicted signal sequence; Light chain without predicted signal sequence
B3: 219R45-MB-21M18: anti-VEGF/anti-DLL4 monovalent/bispecific antibody, heavy chains SEQ ID NO:7 and 5, light chains SEQ ID NO:8 (antibody)
heavy 1: B2 heavy 1
heavy 2: B2 heavy 2 with A52S, N53S, R56G
light: B2 light
modifications: 21R79 Heavy chain without predicted signal sequence; 21M18 Heavy chain without predicted signal sequence; Light chain without predicted signal sequence

Assays:
OMP-C8 colon tumor cells = assay: Tumor growth in human skin graft model; assay type: in vivo, NOD-SCID mice; conditions: 25 mg/kg intraperitoneally once a week
Experimental: FIG. 5. Inhibition of colon tumor growth in vivo by an anti-VEGF/anti-DLL4 bispecific antibody. OMP-C8 colon tumor cells were injected subcutaneously into a human skin graft in NOD/SCID mice. Mice were treated with control antibody (-▪-), anti-hDLL4 antibody 21M18 (-▴-), anti-VEGF antibody bevacizumab (-∘-), or anti-VEGF/anti-DLL4 bispecific antibody 219R45-MB-21M18 (-▾-). Data is shown as tumor volume (photons/sec) over days post-treatment. Antibodies were administered intraperitoneally at a dose of 25 mg/kg once a week.
A human skin graft model has been reported which comprises a human skin graft and human tumor cells. A human skin graft is established and then human tumor cells are implanted into the skin graft, allowing the tumor cells to grow in an environment with human stroma and vasculature (Tahtis et al., 2003, Mol. Cancer Ther. 2:[…]). Human skin samples were obtained from neonatal foreskin tissue and grafted onto the lateral flank of NOD-SCID mice. After establishment of the skin graft, luciferase-labeled OMP-C8 colon tumor cells (20,000 cells) were injected intradermally into the human skin. Tumor growth was monitored by bioluminescence imaging using an IVIS imaging system (Caliper Life Sciences, Mountain View, Calif.). Tumors were allowed to grow until they reached 1.2×10^6 photons per second. Tumor-bearing mice (n=6 mice/group) were randomized and treated with control Ab, anti-hDLL4 antibody 21M18, anti-VEGF antibody bevacizumab, or anti-VEGF/anti-DLL4 bispecific antibody 219R45-MB-21M18. Animals were treated once a week and antibodies were administered intraperitoneally at a dose of 25 mg/kg. Tumor growth was monitored by bioluminescence imaging on the indicated days.

OMP-C8 colon tumor = OMP-C8 colon tumor recurrence model; assay type: in vivo, NOD/SCID mice; conditions: 21M18, bevacizumab 7.5 mg/kg, bispecifics 15 mg/kg weekly ip; irinotecan 45 mg/kg for first four weeks
Experimental: FIG. 9. Inhibition of colon tumor growth by anti-VEGF/anti-DLL4 bispecific antibodies in tumor recurrence model. OMP-C8 colon tumor cells were injected subcutaneously in NOD/SCID mice. Mice were treated with control antibody (-▪-), anti-hDLL4 antibody 21M18 (-●-), anti-VEGF antibody bevacizumab (-▴-), a combination of 21M18 and bevacizumab (-▾-), anti-VEGF/anti-DLL4 bispecific antibody 219R45-MB-21M18 (-⋄-), or anti-VEGF/anti-DLL4 bispecific antibody 219R45-MB-21R79 (-∘-), all in combination with irinotecan. Antibodies 21M18 and bevacizumab were administered intraperitoneally at a dose of 7.5 mg/kg once a week, bispecific antibodies 219R45-MB-21M18 and 219R45-MB-21R79 were administered intraperitoneally at a dose of 15 mg/kg once a week, and irinotecan was administered for the first 4 weeks at a dose of 45 mg/kg. Data are shown as tumor volume (mm^3) over days post-treatment.
Single cell suspensions of OMP-C8 colon tumor xenografts (20,000 cells) were injected subcutaneously into the flanks of 6-8 week old NOD/SCID mice. […] Tumor growth was monitored and tumor volumes were measured with electronic calipers at the indicated time points. Data are expressed as mean±S.E.M.

VEGF and DLL4 = VEGF and DLL4 (Homo sapiens, UniProt P15692+Q9NR61); assay: HTRF assay for simultaneous binding to human VEGF and human DLL4; conditions: d2-labeled hDLL4-Fc and Europium cryptate-labeled hVEGF165
From the text: FIG. 2. HTRF assay for simultaneous binding of bispecific antibodies to human VEGF and human DLL4. Results are reported in Relative Fluorescence Units (RFU), which represent the ratio of the relative fluorescence intensity at 665 nm to the relative fluorescence intensity at 620 nm. 219R45-MB-21M18 (-●-); 219R45-MB-21R79 (-▪-); 219R45 plus 21M18 (-▴-); 219R45 plus 21R79 (-□-); 219R45 (-▾-); 21M18 (-⋄-); 21R79 (-∘-); control antibody LZ-1 (-Δ-).
To characterize the binding capabilities of certain antibodies and/or antibody mixtures to both VEGF and DLL4, homogeneous time resolved fluorescence (HTRF) assays were performed. Antibodies tested were anti-VEGF/anti-DLL4 bispecific antibodies 219R45-MB-21M18 and 219R45-MB-21R79, parental antibodies 219R45 (anti-VEGF), 21M18 (anti-DLL4), 21R79 (anti-DLL4), a combination of 219R45 and 21M18, or a combination of 219R45 and 21R79. The antibodies or antibody mixtures were serially diluted 2-fold from 3000 nM to 2.9 nM in binding buffer (1× PBS, 0.1% gelatin, 0.1% Polysorbate 20, 400 mM potassium fluoride) and placed in a white 96-well plate. […] The assay plates were incubated for 2 hours to overnight and read on a SpectraMax M5e Microplate reader (Molecular Devices, Sunnyvale, Calif.) at an excitation wavelength of 314 nm.

Molecule	inhibition of tumor growth (bioluminescence) (OMP-C8 colon tumor cells)	inhibition of tumor regrowth after irinotecan was stopped (OMP-C8 colon tumor)	simultaneous binding to hVEGF and hDLL4 (VEGF and DLL4)
B1	inhibited tumor growth	continued to inhibit tumor growth after treatment with irinotecan was stopped	–
B2	–	–	able to bind both hVEGF and hDLL4 simultaneously
B3	more effective than either the anti-DLL4 antibody or the anti-VEGF antibody alone	more effective at inhibiting tumor regrowth than the mixture of the two antibodies	able to bind both hVEGF and hDLL4 simultaneously
